According to US20210388084A1:

What was measured:
[1] = biological target: membrane-bound full-length human CD89 (human) (UniProt P24071); assay: FACS, HEK293F-huCD89, 4C +NaN3, IgA then Ab 10 ug/mL; pre-bound non-aggr serum IgA
[2] = biological target: membrane-bound full-length human CD89 (human) (UniProt P24071); assay: FACS, HEK293F-huCD89, 4C +NaN3, IgA then Ab 10 ug/mL; pre-bound heat-aggr serum IgA
[3] = biological target: membrane-bound full-length human CD89 (human) (UniProt P24071); assay: FACS, HEK293F-huCD89, 4C +NaN3, Ab 10 ug/mL then IgA; competitor non-aggr serum IgA
[4] = biological target: membrane-bound full-length human CD89 (human) (UniProt P24071); assay: FACS, HEK293F-huCD89, 4C +NaN3, Ab 10 ug/mL then IgA; competitor heat-aggr serum IgA
[5] = biological target: membrane-bound full-length human CD89 (human) (UniProt P24071); assay: FACS, HEK293F-huCD89, 24 h 37C no NaN3, IgA then Ab 10 ug/mL; pre-bound non-aggr serum IgA
[6] = biological target: membrane-bound full-length human CD89 (human) (UniProt P24071); assay: FACS, HEK293F-huCD89, 24 h 37C no NaN3, Ab 10 ug/mL then IgA; competitor non-aggr serum IgA
[7] = biological target: membrane-bound full-length human CD89 (human) (UniProt P24071); assay: FACS, HEK293F-huCD89, 24 h 37C no NaN3, IgA then Ab 10 ug/mL; pre-bound heat-aggr serum IgA
[8] = biological target: membrane-bound full-length human CD89 (human) (UniProt P24071); assay: FACS, HEK293F-huCD89, 24 h 37C no NaN3, Ab 10 ug/mL then IgA; competitor heat-aggr serum IgA
[9] = biological target: membrane-bound full-length human CD89 (human) (UniProt P24071); assay: FACS, HEK293F-huCD89, titrated Ab; competitor non-aggr serum IgA
[10] = biological target: membrane-bound full-length human CD89 (human) (UniProt P24071); assay: FACS, HEK293F-huCD89, titrated Ab; competitor heat-aggr serum IgA
[11] = biological target: membrane-bound full-length human CD89 (human) (UniProt P24071); assay: FACS, HEK293F-huCD89, unlabeled Ab 10 ug/mL first; competitor A59-PE
[12] = biological target: membrane-bound full-length human CD89 (human) (UniProt P24071); assay: FACS, HEK293F-huCD89, unlabeled Ab 10 ug/mL first; competitor A3-PE
[13] = biological target: membrane-bound full-length human CD89 (human) (UniProt P24071); assay: FACS, HEK293F-huCD89 (Example 7 (b)); competitor non-aggr serum IgA
[14] = biological target: membrane-bound full-length human CD89 (human) (UniProt P24071); assay: FACS, HEK293F-huCD89 (Example 7 (b)); competitor heat-aggr serum IgA
[15] = biological target: membrane-bound full-length human CD89 (human) (UniProt P24071); assay: FACS, HEK293F-huCD89, unlabeled Ab 10 ug/mL first; competitor MIP8a-PE

Row | percent IgA binding [1] [%] | percent IgA binding [2] [%] | percent IgA binding [3] [%] | percent IgA binding [4] [%] | percent IgA binding (remaining) [5] [%] | percent IgA binding (remaining) [6] [%] | percent IgA binding (remaining) [7] [%] | percent IgA binding (remaining) [8] [%] | maximum inhibition of IgA binding [9] [%] | maximum inhibition of IgA binding [10] [%] | % blocking of A59-PE binding [11] [%] | % blocking of A3-PE binding [12] [%] | maximum inhibition of IgA binding [13] [%] | maximum inhibition of IgA binding [14] [%] | % blocking of MIP8a-PE binding [15] [%] | % blocking of IgA binding [3] [%] | % blocking of IgA binding [4] [%] | Substance
1 | 76 to 125 | 76 to 125 | 76 to 125 | 76 to 125 | 76 to 125 | 76 to 125 | 76 to 125 | 76 to 125 | – | – | – | – | – | – | – | – | – | purified mouse IgG1 isotype control (antibody)
2 | 76 to 125 | 76 to 125 | 26 to 50 | 26 to 50 | 26 to 50 | 26 to 50 | 76 to 125 | 76 to 125 | 60 | 60 | > 90 | > 90 | 60 | 60 | < 25 | 60 | 60 | mouse anti-human CD89 antibody clone A59 (BD Biosciences)
3 | 76 to 125 | 76 to 125 | 26 to 50 | 26 to 50 | – | 26 to 50 | 76 to 125 | 76 to 125 | 60 | 60 | > 90 | > 90 | 60 | 60 | < 25 | 60 | 60 | mouse anti-human CD89 antibody clone A3 (Santa Cruz Biotechnology)
4 | 0 to 25 | 0 to 25 | 0 to 25 | 0 to 25 | 0 to 25 | 0 to 25 | 0 to 25 | 0 to 25 | – | – | 50 | 55 | – | – | > 90 | – | – | mouse anti-human CD89 antibody clone MIP8a (BioRad)
